According to paper PMC5342555, “ATAD2 is an epigenetic reader of newly synthesized histone marks during DNA replication” (Oncotarget, 2016):

System: HDAC1 binding to H4K5,12diac
Assay: In vitro competition with HDAC1 for immobilized H4K5,12diac peptides (direct binding pull down)
Conditions: for competition with HDAC1 for interaction with H4K5,12diac: full length ATAD2 0.22 μM pre-incubated 2 h, then 0.1 μM HDAC1 2 h, 1 μM peptide
Method: H4 peptides (1-25) conjugated with Biotin was immobilized on Streptavidin-coupled Dynabeads for 2 hours at 4 °C and incubated with nuclear extract from MCF7 cells. Nuclear extract was prepared by first isolating nucleus in hypotonic buffer (10 mM Tris-HCl pH 8.5, 10 mM NaCl, 0.5 mM TCEP and 0.1 % NP-40) and disrupting nuclear envelop in high salt buffer (20 mM Tris-HCl pH 8.5, 420 mM NaCl, 0.5 mM TCEP, 0.1 % Triton X-100, 25 % Glycerol) for 2 hours at 4 °C. Soluble nuclear extract was harvested by centrifugation at 20000 g for 20 min and diluted to 1:3 in buffer without NaCl in order to achieve physiological salt concentration, 140 mM. The nuclear extract was incubated with the immobilized peptides on the Streptavidin-Dynabeads overnight at 4 °C. Next day, the beads were washed three times with washing buffer (20 mM Tris-HCl pH 8.5, 140 mM NaCl, 0.5 mM TCEP, 0.1 % Triton X-100, 25 % Glycerol) and twice with high salt buffer. Bound proteins were recovered by boiling the beads in 1X sample buffer for 5 min. at 95 °C and analyzed by SDS-PAGE and Western Blotting. For direct binding experiments 1 μM of immobilized histone peptides on Streptavidin-Dynabeads were incubated with indicated amounts of ligands for 2 hours at 4 °C. After stringent washing as described above, bound proteins were analyzed in Western Blotting.

| Molecule | competition with HDAC1 for interaction with H4K5,12diac | competition with HDAC1 for binding to H4K5,12diac peptides (increasing amount of ATAD2^342-1390 2 h, then 0.1 μM recombinant HDAC1 2 h, 1 μM immobilized peptide) |
| --- | --- | --- |
| WT ATAD2: recombinant FLAG-tagged full length ATAD2 purified from HEK 293 cells (protein, left off: tagGFP, end not stated, kept, recombinant FLAG-tagged full length ATAD2 purified from HEK 293 cells) MVVLRSSLELHNHSAASATGSLDLSSDFLSLEHIGRRRLRSAGAAQKKPAATTAKAGDGSSVKEVETYHRTRALRSLRKDAQNSSDSSFEKNVEITEQLANGRHFTRQLARQQADKKKEEHREDKVIPVTRSLRARNIVQSTEHLHEDNGDVEVRRSCRIRSRYSGVNQSMLFDKLITNTAEAVLQKMDDMKKMRRQRMRELEDLGVFNETEESNLNMYTRGKQKDIQRTDEETTDNQEGSVESSEEGEDQEHEDDGEDEDDEDDDDDDDDDDDDDDEDDEDEEDGEEENQKRYYLRQRKATVYYQAPLEKPRHQRKPNIFYSGPASPARPRYRLSSAGPRSPYCKRMNRRRHAIHSSDSTSSSSSEDEQHFERRRKRSRNRAINRCLPLNFRKDELKGIYKDRMKIGASLADVDPMQLDSSVRFDSVGGLSNHIAALKEMVVFPLLYPEVFEKFKIQPPRGCLFYGPPGTGKTLVARALANECSQGDKRVAFFMRKGADCLSKWVGESERQLRLLFDQAYQMRPSIIFFDEIDGLAPVRSSRQDQIHSSIVSTLLALMDGLDSRGEIVVIGATNRLDSIDPALRRPGRFDREFLFSLPDKEARKEILKIHTRDWNPKPLDTFLEELAENCVGYCGADIKSICAEAALCALRRRYPQIYTTSEKLQLDLSSINISAKDFEVAMQKMIPASQRAVTSPGQALSTVVKPLLQNTVDKILEALQRVFPHAEFRTNKTLDSDISCPLLESDLAYSDDDVPSVYENGLSQKSSHKAKDNFNFLHLNRNACYQPMSFRPRILIVGEPGFGQGSHLAPAVIHALEKFTVYTLDIPVLFGVSTTSPEETCAQVIREAKRTAPSIVYVPHIHVWWEIVGPTLKATFTTLLQNIPSFAPVLLLATSDKPHSALPEEVQELFIRDYGEIFNVQLPDKEERTKFFEDLILKQAAKPPISKKKAVLQALEVLPVAPPPEPRSLTAEEVKRLEEQEEDTFRELRIFLRNVTHRLAIDKRFRVFTKPVDPDEVPDYVTVIKQPMDLSSVISKIDLHKYLTVKDYLRDIDLICSNALEYNPDRDPGDRLIRHRACALRDTAYAIIKEELDEDFEQLCEEIQESRKKRGCSSSKYAPSYYHVMPKQNSTLVGDKRSDPEQNEKLKTPSTPVACSTPAQLKRKIRKKSNWYLGTIKKRRKISQAKDDSQNAIDHKIESDTEETQDTSVDHNETGNTGESSVEENEKQQNASESKLELRNNSNTCNIENELEDSRKTTACTELRDKIACNGDASSSQIIHISDENEGKEMCVLRMTRARRSQVEQQQLITVEKALAILSQPTPSLVVDHERLKNLLKTVVKKSQNYNIFQLENLYAVISQCIYRHRKDHDKTSLIQKMEQEVENFSCSR | competes | – |
| ATPase mutant ATAD2: recombinant full length ATPase inactive mutant ATAD2 (K473T and E532Q) (protein, left off: tagGFP, end not stated, kept) MVVLRSSLELHNHSAASATGSLDLSSDFLSLEHIGRRRLRSAGAAQKKPAATTAKAGDGSSVKEVETYHRTRALRSLRKDAQNSSDSSFEKNVEITEQLANGRHFTRQLARQQADKKKEEHREDKVIPVTRSLRARNIVQSTEHLHEDNGDVEVRRSCRIRSRYSGVNQSMLFDKLITNTAEAVLQKMDDMKKMRRQRMRELEDLGVFNETEESNLNMYTRGKQKDIQRTDEETTDNQEGSVESSEEGEDQEHEDDGEDEDDEDDDDDDDDDDDDDDEDDEDEEDGEEENQKRYYLRQRKATVYYQAPLEKPRHQRKPNIFYSGPASPARPRYRLSSAGPRSPYCKRMNRRRHAIHSSDSTSSSSSEDEQHFERRRKRSRNRAINRCLPLNFRKDELKGIYKDRMKIGASLADVDPMQLDSSVRFDSVGGLSNHIAALKEMVVFPLLYPEVFEKFKIQPPRGCLFYGPPGTGTTLVARALANECSQGDKRVAFFMRKGADCLSKWVGESERQLRLLFDQAYQMRPSIIFFDQIDGLAPVRSSRQDQIHSSIVSTLLALMDGLDSRGEIVVIGATNRLDSIDPALRRPGRFDREFLFSLPDKEARKEILKIHTRDWNPKPLDTFLEELAENCVGYCGADIKSICAEAALCALRRRYPQIYTTSEKLQLDLSSINISAKDFEVAMQKMIPASQRAVTSPGQALSTVVKPLLQNTVDKILEALQRVFPHAEFRTNKTLDSDISCPLLESDLAYSDDDVPSVYENGLSQKSSHKAKDNFNFLHLNRNACYQPMSFRPRILIVGEPGFGQGSHLAPAVIHALEKFTVYTLDIPVLFGVSTTSPEETCAQVIREAKRTAPSIVYVPHIHVWWEIVGPTLKATFTTLLQNIPSFAPVLLLATSDKPHSALPEEVQELFIRDYGEIFNVQLPDKEERTKFFEDLILKQAAKPPISKKKAVLQALEVLPVAPPPEPRSLTAEEVKRLEEQEEDTFRELRIFLRNVTHRLAIDKRFRVFTKPVDPDEVPDYVTVIKQPMDLSSVISKIDLHKYLTVKDYLRDIDLICSNALEYNPDRDPGDRLIRHRACALRDTAYAIIKEELDEDFEQLCEEIQESRKKRGCSSSKYAPSYYHVMPKQNSTLVGDKRSDPEQNEKLKTPSTPVACSTPAQLKRKIRKKSNWYLGTIKKRRKISQAKDDSQNAIDHKIESDTEETQDTSVDHNETGNTGESSVEENEKQQNASESKLELRNNSNTCNIENELEDSRKTTACTELRDKIACNGDASSSQIIHISDENEGKEMCVLRMTRARRSQVEQQQLITVEKALAILSQPTPSLVVDHERLKNLLKTVVKKSQNYNIFQLENLYAVISQCIYRHRKDHDKTSLIQKMEQEVENFSCSR | not | – |
| ATAD2^342-1390: recombinant FLAG-tagged ATAD2 residues 342 to 1390, purified from Sf9 cells (protein) SPYCKRMNRRRHAIHSSDSTSSSSSEDEQHFERRRKRSRNRAINRCLPLNFRKDELKGIYKDRMKIGASLADVDPMQLDSSVRFDSVGGLSNHIAALKEMVVFPLLYPEVFEKFKIQPPRGCLFYGPPGTGKTLVARALANECSQGDKRVAFFMRKGADCLSKWVGESERQLRLLFDQAYQMRPSIIFFDEIDGLAPVRSSRQDQIHSSIVSTLLALMDGLDSRGEIVVIGATNRLDSIDPALRRPGRFDREFLFSLPDKEARKEILKIHTRDWNPKPLDTFLEELAENCVGYCGADIKSICAEAALCALRRRYPQIYTTSEKLQLDLSSINISAKDFEVAMQKMIPASQRAVTSPGQALSTVVKPLLQNTVDKILEALQRVFPHAEFRTNKTLDSDISCPLLESDLAYSDDDVPSVYENGLSQKSSHKAKDNFNFLHLNRNACYQPMSFRPRILIVGEPGFGQGSHLAPAVIHALEKFTVYTLDIPVLFGVSTTSPEETCAQVIREAKRTAPSIVYVPHIHVWWEIVGPTLKATFTTLLQNIPSFAPVLLLATSDKPHSALPEEVQELFIRDYGEIFNVQLPDKEERTKFFEDLILKQAAKPPISKKKAVLQALEVLPVAPPPEPRSLTAEEVKRLEEQEEDTFRELRIFLRNVTHRLAIDKRFRVFTKPVDPDEVPDYVTVIKQPMDLSSVISKIDLHKYLTVKDYLRDIDLICSNALEYNPDRDPGDRLIRHRACALRDTAYAIIKEELDEDFEQLCEEIQESRKKRGCSSSKYAPSYYHVMPKQNSTLVGDKRSDPEQNEKLKTPSTPVACSTPAQLKRKIRKKSNWYLGTIKKRRKISQAKDDSQNAIDHKIESDTEETQDTSVDHNETGNTGESSVEENEKQQNASESKLELRNNSNTCNIENELEDSRKTTACTELRDKIACNGDASSSQIIHISDENEGKEMCVLRMTRARRSQVEQQQLITVEKALAILSQPTPSLVVDHERLKNLLKTVVKKSQNYNIFQLENLYAVISQCIYRHRKDHDKTSLIQKMEQEVENFSCSR | – | outcompeted |
